# According to patent US20240309102A1 (LENTIGEN TECHNOLOGY, published 2024):
# T1: recombinant human CD123-Fc (human, UniProt P26951 19-305, limits assumed)
# T1 construct: Panning and sorting antigen; not shown: Fc part
# T1 sequence (looked up): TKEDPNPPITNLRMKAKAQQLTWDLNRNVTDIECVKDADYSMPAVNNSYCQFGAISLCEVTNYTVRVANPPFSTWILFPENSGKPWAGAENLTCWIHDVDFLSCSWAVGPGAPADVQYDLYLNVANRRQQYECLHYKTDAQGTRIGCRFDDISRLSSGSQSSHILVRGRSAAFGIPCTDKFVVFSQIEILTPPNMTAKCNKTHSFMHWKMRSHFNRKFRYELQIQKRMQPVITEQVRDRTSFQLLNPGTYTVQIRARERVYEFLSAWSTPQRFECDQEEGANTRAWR
# Molecular target: T1, recombinant human CD123-Fc
# Assay: yeast display; 3 rounds of MACS and a FACS sort (top 1%) with CD123-Fc; clone sequenced from the sorted pool, not tested singly
# Experimental: A large yeast display human naive single chain variable fragment (ScFv) antibody library was used to isolate anti-human CD123 antibodies described herein. The library was constructed using a collection of human antibody gene repertoires from more than 60 individuals. Three rounds of magnetic-activated cell sorting (MACS) were performed to enrich human ScFv binders to the recombinant human CD123-Fc. For the first round of yeast library panning, the yeast display ScFv library (5×10¹⁰ cells) was incubated with 5 μg/mL CD123-Fc in 15 ml PBSA (consisting of 0.1% Bovine Serum Albumin (BSA) in Dulbecco's phosphate-buffered saline (PBS) buffer), at room temperature on a rotator for 1.5 hours. After two times washing with 25 ml PBSA, the yeast library mix was incubated with 100 μL Protein G microbeads (Miltenyi Biotec) at room temperature on a rotator for 30 minutes. After one time washing, the library mix was resuspended in 50 ml of PBSA and loaded onto the MACS cell separation column (LS column). After three times washing with 10 ml PBSA. […] These eluted yeast cells were combined and then resuspended into 50 ml SDCAA medium (20 g D-glucose, 6.7 g BD Difco™ Yeast Nitrogen Base without Amino Acids, 5 g Bacto™ Casamino Acids, 5.4 g Na2·HPO4, and 8.56 g NaH2PO4·H2O in 1 L water) and amplified with shaking at 225 rpm at 30° C. for 20 hours. The amplified pool was then induced in SGCAA medium (consisting of the same composition of SDCAA medium, but containing galactose instead of glucose), with shaking at 225 rpm at 30° C. for another 16 hours and used for next round of panning. The same process was repeated two more times to enrich the CD123-Fc specific binders.
# To further enrich the binders with higher affinity and better specificity, FACS based sorting was employed to isolate the strongest binders from the pool. The induced pool was incubated with 1 μg/ml of CD123-Fc at room temperature for 1 hour and then stained with Anti-c-Myc-Alexa 488 and Goat anti-Hu-Fc PE conjugates, the top 1% of the pool with the highest PE versus FITC signal was gated and sorted. The sorted pool was amplified in SDCAA medium and yeast plasmid DNA was extracted and transformed into bacterial for single clone DNA sequencing. 40 random clones were sequenced and 36 unique sequences were identified.
row,Binder,binding result
1,CD123 hScFv binder M12309 (scFv) scFv: EVQLVQSGAEVKKPGATVKISCKVSGYTFTDYYMHWVQQAPGKGLEWIGLVDPEDGETIYAEKFQGRVTITADTSTDTAYMELSSLRSEDTAVYYCATAPLGEVGAAVDYWGQGTLVTVSSGGGGSGGGGSGGGGSHVILTQPPSVSAAPGQEVSISCSGSDANIGTNLVSWYQHVPGTAPKLLIYENSKRPSGIPARFSSSQSGTSATLAISGLQSGDEAIYYCLTWDRTLSGKIFGGGTQLTVLG,binds
2,CD123 hScFv binder M12305 (scFv) scFv: QVQLVQSGAEVKKPGSSVKVSCKASGGTFSSYAISWVRQAPGQGLEWMGGIIPIFGTANYAQKFQGRVTITTDESTSTAYMELSSLRSEDTAVYYCARRGWGGFSSGSAFDIWGQGTMVTVSSGGGGSGGGGSGGGGSNFMLTQPHSVSESPGNTVTISCTGSSGTIGSNFVQWYQQSPGRAPTLLIYEDTKRPSGVPPRFAGSVDSSSNSASLTISGLKTEDEADYYCQSYDSSNWVFGGGTKLTVLG,binds
3,CD123 hScFv binder M12314 (scFv) scFv: EVQLVQSGAEVKKPGSSVKVSCKASGGTFSSYAISWVRQAPGQGLEWMGGIIPIFGTANYAQKFQGRVTITADESTSTAYMELSSLRSEDTAVYYCARVGCSGGSCYPDYWGQGTLVTVSSGGGGSGGGGSGGGGSEIVLTQSPSSLSASVGDRVTITCQASQDISNYLNWYQQKPGKAPKLLIYDASNLETGVPSRFSGSGSGTDFTFTISSLQPEDIATYYCQQYDNLPLTFGGGTKLDIK,binds
4,CD123 hScFv binder M12306 (scFv) scFv: EVQLVQSGSELKKPGASVKVSCKASGGTFSSYAISWVRQAPGQGLEWMGGIIPIFGTANYAQKFQGRVTITADESTSTAYMELSSLRSEDTAVYYCASTARRGWDTAGPLDYWGQGTLVTVSSGGGGSGGGGSGGGGSDIQMTQSPSSLSASVGDRVTIACRASQTISRYLNWYQQKPGKAPKLLIYAASSLQSGVSSRFSGSGSGTEFTLTISSLQPEDFATYFCQQTYSPPITFGQGTRLEIK,binds
5,CD123 hScFv binder M12311 (scFv) scFv: EVQLVQSGAEVKKPGSSVKVSCKASGGTFSSYAISWVRQAPGQGLEWMGGIIPIFGTANYAQKFQGRVTITADESTSTAYMELSSLRSEDTAVYYCARARLGGAFDIWGQGTMVTVSSGGGGSGGGGSGGGGSQSVLTQPPSVSAAPGQKVTISCSGGSSNIGNHYVSWYQQLPGAAPKLLIYDDNKRPSGIPDRFSGSRSGTSATLGITGLQSGDEADYYCGTWDSSLAAHVFGTGTKVTVLG,binds
6,CD123 hScFv binder M12313 (scFv) scFv: EVQLVQSGAEVKKPGSSVKVSCKASGGTFSSYAISWVRQAPGQGLEWMGGIIPIFGTANYAQKFQGRVTITADESTSTAYMELSSLRSEDTAVYYCASQKGGGWSIDAFDIWGQGTMVTVSSGGGGSGGGGSGGGGSQSVLTQPPSVSAASGQRVTISCSGSSSNIGNNYASWYQQLPGMAPKLLIYEDNKRPSGISDRFSGSQSGTSASLAITGLQAEDEADYYCQSYDSSLSGDVVFGGGTKLTVLG,binds
7,CD123 hScFv binder M12303 (scFv) scFv: EVQLVETGAEVKKPGASVKVSCKASGYTFTTYYVHWVRQAPGQGLEWMGIINPSGGSTSYAQKFQGRVTMTRDTSTSTVYMELSSLRSEDTAVYYCARDGGLGGYEAWGQGTLVTVSSGGGGSGGGGSGGGGSDIQLTQSPSALSASAGDRVTITCQASQDISNYLNWYQQKPGKAPKLLIYDASNLERGVPSRFSGSGSGTEFTFTISSLQPEDIATYYCQQYDNLPITFGQGTRLEIK,binds
8,CD123 hScFv binder M12315 (scFv) scFv: QVQLQQWGAGLLKPSETLSLTCAVYGGSFSGYYWSWIRQPPGKGLEWIGEINHSGSTNYNPSLKSRVTISVDTSKNQFSLKLSSVTAADTAVYYCARGQVKYSSSLGYWGQGTLVTVSSGGGGSGGGGSGGGGSQSVLTQPPSVSAAPGQKVTISCSGSSSNIGNNFVSWYQQLPGTAPKLLIYEDNKRPSGIPDRFSGSRSGTSATLGITGLQTGDEADYYCGTWDSSLGAWVFGGGTKLTVLG,binds

# Other lines, results leading:
row,binding result,Binder
1,binds,CD123 hScFv binder M12318 (scFv) scFv: EVQLVQSGGGVVQPGRSLRLSCAASGFTFSSYSMNWVRQAPGKGLEWVSSISSSSSYIYYADSVKGRFTISRDNAKNTLYLQMNSLRAEDTAVYYCARDNWGSLDYWGQGTLVTVSSGGGGSGGGGSGGGGSDIQMTQSPSSLSASVGDRVTITCQASQDISNYLNWYQQKPGKAPKLLIYDASNLETGVPSRFSGSGSGTDFTFTISSLQPEDIATYYCQQYDNLPHMYTFGQGTKLEIK
2,binds,CD123 hScFv binder M12317 (scFv) scFv: QVQLVETGGGLVKPGGSLRLSCAASGFTFSSYSMNWVRQAPGKGLEWVSSISSSSSYIYYADSVKGRFTISRDNAKNSLYLQMNSLRAEDTAVYYCARDGDFWSGAIDYWGQGTLVTVSSGGGGSGGGGSGGGGSDIQLTQSPSSLSASVGDRVTITCQASQDISNYLNWYQQKPGKAPKLLIYDASNLETGVPSRFSGSGSGTDFTFTISSLQPEDIATYYCQQYDNLPLFGGGTKLEIK
3,binds,CD123 hScFv binder M12308 (scFv) scFv: EVQLVETGAEVKNPGSSVKVSCKASGGTLSNYAISWVRQAPGKGLEWMGGIIPIFGTANYAQKFQGRVTITADESTSTAYMELSSLRSEDTAVYYCARRSSWYPEGCFQHWGQGTLVTVSSGGGGSGGGGSGGGGSDIQLTQSPSSLSASTGDRVTITCRASQGISSYLAWYQQKPGKAPKLLIYAASTLQSGVPSRFSGSGSGTDFTLTISCLQSEDFATYYCQQYYSYPLTFGGGTKLDIK
4,binds,CD123 hScFv binder M12316 (scFv) scFv: EVQLVESGGGLVQPGGSLRLSCAASGFTFSSYAMHWVRQAPGKGLEWVSSISSSSSYIYYADSVKGRFTISRDNSKNTLYLQMNSLRAEDTAVYYCARDWDDAFDIWGQGTTVTVSSGGGGSGGGGSGGGGSDIQMTQSPSSLSASVGDRVTITCQASQDISNYLNWYQQKPGKAPKLLIYDASNLETGVPSRFSGSGSGTDFTFTISSLQPEDIATYYCQQYDNLPLTFGGGTKLEIK
